Target: T1, BS69 coiled-coil MYND domain (BS69_(CC-MYND), amino acids 480-602) (human, UniProt Q15326 480-602)
T1 chain: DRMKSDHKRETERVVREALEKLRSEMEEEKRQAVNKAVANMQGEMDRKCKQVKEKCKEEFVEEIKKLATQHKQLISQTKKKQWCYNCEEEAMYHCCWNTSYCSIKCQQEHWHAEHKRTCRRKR
Assay: ITC

B1: type 1 EBNA2 polypeptide T1 EBNA2_(381-455) (domain or fragment)
chain: SMPELSPVLGLHQGQGAGDSPTPGPSNAAPVCRNSHTATPNVSPIHEPESHNSPEAPILFPDDWYPPSIDPADLD
Kd: 730 nM

From PMC6638984 (2019)
